Laboratory results taken from doi:10.1101/2020.10.08.20209114 (medRxiv, 2020).

Target: SARS-CoV-2 S2 protein (SARS-CoV-2 (Wuhan-Hu-1 assumed), UniProt P0DTC2)
Experiment: ELISA

Binder	binding result
monoclonal antibody 4L12 (antibody, V domains shown) VH: EVQLVESGGGLVQPGGSLRLSCAASGITVSSNYMNWVRQAPGRGLEWVSLLYSGGSTYYADSVKGRFTISRDNSKNTLYLQMNSLRAEDTAVYYCARDLITYGMDVWGQGTTVTVSS VL: AIQLTQSPSSLSASVGDRVTITCRASQGISSYLAWYQQKPGKAPKLLIYAASTLQSGVPSRFSGSGSGTDFTLTISSLQPEDFATYYCQQLNSYPPLTFGGGTKVEIK	no binding
monoclonal antibody 7F3 (antibody, V domains shown) VH: EVQLVESGGGLVKPGRSLRLSCTASGFTFGDYAMSWFRQAPGKGLEWVGFIRSKAYGGTTEYAASVKGRFTISRDDSKSIAYLQMNSLKTEDTAVYYCTRDRYARYDILTGLSPAGADYFYYAMDVWGQGTTVTVSS VL: EIVLTQSPATLSLSPGERATLSCRASQSVSSYLAWYQQKPGQAPRLLIYDASNRATGIPARFSGSGSGTDFTLTISSLEPEDFAVYYCQQRSNWPQYTFGQGTKLEIK	no binding
